The values that follow come from patent US20250296986A1.

For one assay, the target named is human FcγRIIb (human) (UniProt P31994). The assay is described as follows: compared with fucosylated wild-type human IgG1; MSD per FIGS. 10A-10C.
Assay [1] has as its target human FcγRIIa (H131 allele) (human) (UniProt P12318). The assay is described as above.
The target of assay [2] is human FcγRIIa (R131 allele) (human) (UniProt P12318). Described as above.
The target in a further assay is human C1q (human) (UniProt P02745). The assay is described as follows: C1q binding assay (FIG. 15: antibody Fc captured on Octet sensor, human C1q in solution).
human C1q (human), sequence (P02745 23-245 limits assumed, chain 1 of 3): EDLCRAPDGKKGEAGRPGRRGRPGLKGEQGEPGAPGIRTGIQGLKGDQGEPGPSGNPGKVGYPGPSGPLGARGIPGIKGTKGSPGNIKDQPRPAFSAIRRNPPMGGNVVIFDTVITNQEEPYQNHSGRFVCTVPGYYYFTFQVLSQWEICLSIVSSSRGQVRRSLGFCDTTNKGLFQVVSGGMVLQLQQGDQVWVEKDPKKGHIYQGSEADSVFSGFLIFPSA
human C1q (human), sequence (P02746 28-253 limits assumed, chain 2 of 3, further chain): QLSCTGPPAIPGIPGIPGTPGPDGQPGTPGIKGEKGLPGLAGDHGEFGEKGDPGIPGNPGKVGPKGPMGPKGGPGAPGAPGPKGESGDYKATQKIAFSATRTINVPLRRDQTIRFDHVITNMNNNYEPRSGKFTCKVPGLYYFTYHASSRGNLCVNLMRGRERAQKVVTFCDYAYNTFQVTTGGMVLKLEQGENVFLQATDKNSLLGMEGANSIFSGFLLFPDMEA
human C1q (human), sequence (P02747 29-245 limits assumed, chain 3 of 3, further chain): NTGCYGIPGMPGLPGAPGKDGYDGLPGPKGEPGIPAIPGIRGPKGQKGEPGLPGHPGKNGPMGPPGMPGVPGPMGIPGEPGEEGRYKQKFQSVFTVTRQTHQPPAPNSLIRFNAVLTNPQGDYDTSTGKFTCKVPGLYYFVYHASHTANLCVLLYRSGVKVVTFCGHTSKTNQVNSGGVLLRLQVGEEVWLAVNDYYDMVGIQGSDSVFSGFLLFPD

human FcγRIIa (H131 allele) (human), sequence (P12318 34-218 limits assumed): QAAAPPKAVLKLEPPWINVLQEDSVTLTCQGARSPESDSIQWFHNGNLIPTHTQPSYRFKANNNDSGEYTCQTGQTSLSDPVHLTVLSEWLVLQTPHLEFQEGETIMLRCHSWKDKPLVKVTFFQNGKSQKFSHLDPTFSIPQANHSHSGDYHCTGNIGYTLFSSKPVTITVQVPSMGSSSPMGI
human FcγRIIb (human), sequence (P31994 43-217 limits assumed): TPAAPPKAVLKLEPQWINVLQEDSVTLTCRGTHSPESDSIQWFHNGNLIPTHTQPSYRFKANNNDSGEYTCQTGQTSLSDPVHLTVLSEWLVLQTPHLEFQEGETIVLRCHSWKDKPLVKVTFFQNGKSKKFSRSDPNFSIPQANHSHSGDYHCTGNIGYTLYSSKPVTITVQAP
human FcγRIIa (R131 allele) (human), sequence (P12318 34-218 H167R limits assumed): as the sequence (P12318 34-218 limits assumed) above, with H134R counted along it

For G236A_R292P (antibody), the fold-change in binding vs fucosylated wild-type human IgG1 in the assay with human FcγRIIb (human) was under 0.5 fold.
Take G236A_R292P_Y300L (antibody): the fold-change in binding vs fucosylated wild-type human IgG1 in assay [1] was over 14 fold; in assay [2] it was over 2.7 fold.
Consider G236A_Y300L (antibody), for which the results for the fold-change in binding vs fucosylated wild-type human IgG1 in assay [1] and in assay [2] were over 18 fold and over 4 fold, respectively.
For the substance G236S_G420V_G446E_L309T (antibody), the fold-change in binding vs fucosylated wild-type human IgG1 in the assay with human FcγRIIb (human) was under 0.5 fold.
Turning to “afucosylated Fc variant antibodies bearing the G236A ("GA") mutation (antibody)”, the C1q binding relative to reference IgG1 antibody bearing M428L and N434S mutations only with human C1q (human) was 0.3 fold (×).
